Patent publication US20230144436A1, “MUSCLE TARGETING COMPLEXES AND USES THEREOF FOR TREATING MYOTONIC DYSTROPHY” (Dyne Therapeutics, Inc., priority 2020, published 2023)

B1: 3-M12 (antibody, V domains shown)
VH: DVQLQESGPGLVKPSQSLSLTCSVTGYSITSGYYWNWIRQFPGNKLEWMGYITFDGANNYNPSLKNRISITRDTSKNQFFLKLTSVTTEDTATYYCTRSSYDYDVLDYWGQGTTLTVSS
VL: DIQMTQTTSSLSASLGDRVTISCRASQDISNFLNWYQQRPDGTVKLLIYYTSRLHSGVPSRFSGSGSGTDFSLTVSNLEQEDIATYFCQQGHTLPYTFGGGTKLEIK
B2: 2-H19 (antibody, V domains shown)
VH: EVQLQQSGAELVRSGASVKLSCTASGFNIKDYYMHWVKQRPEQGLEWIGWIDPESGDTEYAPKFQGRATMTADTSSNTAYMQLSSLTSEDTAVYYCYGHDYRVDCWGQGTSVTVSS
VL: DVVMTQTPLSLPVSLGDQASISCRSSQSLVHSNGNTYLHWYLQKPGQSPKLLIYKVSNRFSGVPDRFSGSGSGTDFTLKISRVEAEDLGVYFCSQSTHIPWTFGGGTKLEIK
B3: 8-O17 (antibody, V domains shown)
VH: QVQLKESGPGLVAPSQSLSITCTVSGFSLTNYGVHWVRQPPGKGLEWLVVIWNDGSATYNSALESRLSISKDNSKSQVFLKMNSLQTDDTAMYYCARHESSNPFAYWGQGTLVTVSA
VL: DILLTQSPAILSVSPGERVSFSCRASQSIGTSIHWYQQRTNGSPRLLIKSASESIAGIPSRFSGSGSGTDFTLSINSVESEDIADYYCQQNNRWPYTFGGGTKLEIK
B4: 9-K23 (antibody, V domains shown)
VH: QVTLKESGPGMLQPSQTLSLTCSFSGFSLNTYDVGVGWIRQPSGKGLEWLANIWWNDDKYYNSALKSRLTISKDTSNNQVFLKISSVDTADTATYYCTLYSYDGGFAYWGQGTLVTVSA
VL: QIVLTQSPAIMSASLGERVTMTCTASSSVSSSYLHWYQQKPGSSPKLWIYSTSNLASGVPARFSGSGSGTSYSLTISSMEAEDAATYYCHQYHRSPYTFGGGTKLEIK
B5: 4-C5 (antibody, V domains shown)
VH: QVQLQQSGAELMKPGASVKISCKATGYTFSNYWIEWVKQRPGHGLEWIGEILPGSGSTNYNENFKGKATFTADTSSNTAYMQLSSLTSEDSAVYYCARRGAYGNFHYWGQGTTLTVSS
VL: EIVLTQSPALMAASPGEKVTITCSVSSSISSSNLHWYQQKSETSPKPWIYGTSNLASGVPVRFSGSGSGTSYSLTISSMEAEDAATYYCQQWRSYPYTFGGGTKLEIK
B6: 10-H2 (antibody, V domains shown)
VH: EVQLVESGGDLVKPGGSLKLSCAASGFTFSDYGMHWVRQGPEKGLEWVAYINSGSSTIYYADTVKGRFTISRDNAKNTLFLQMTSLRSEDTAMYYCARPGDYDNYAMDYWGQGTSVTVSS
VL: DIVMTQSHKFLSTSVGDRVSITCKASQDVSVAVAWYQQKPGQSPKLLIYWAYTRHTGVPDRFTGSGSGTEYTLTISSVQAEDLALYYCQQHYNTPPWTFGGGTKLEIK
B7: 4-J22 (antibody, V domains shown)
VH: EVQLQQSGAELVRSGASVKLSCTASGFNIKDYYIHWVKQRPEQGLEWIGWIDPENADTEYAPKFQGKATMTPDTSSNTAYLQLSSLTSEDTAVYYCYAWDYSMDYWGQGTSVTVSS
VL: DVVMTQTPLSLSVSLGDQASISCRSSQSLVHSNGNTYLHWYLQKPGQSPKLLIYKVSNRFSGVPDRFSGSGSGTDFILKISRVEAEDLGVYFCSQNTHVPYTFGGGTRLEIK

Columns and labels:
hTfR1 = hTfR1 (Homo sapiens, UniProt P02786); assay: Binding kinetics of anti-TfR1 antibodies on Carterra LSA, hTfR1; conditions: Carterra LSA at 25 C
Description: Selected anti-TfR1 antibodies were tested for their binding affinity to human TfR1 for measurement of Ka (association rate constant), Kd (dissociation rate constant), and KD (affinity). […] The binding experiment was performed on Carterra LSA at 25 C. An anti-mouse IgG and anti-human IgG antibody “lawn” was prepared on a HC30M chip by amine coupling. 59 IgGs (58 mouse mAbs and 1 human mAb) were captured on the chip. Dilution series of hTfR1, cyTfR1, and hTfR2 were injected to the chip for binding (starting from 1000 nM, 1:3 dilution, 8 concentrations).
Binding data were referenced by subtracting the responses from a buffer analyte injection and globally fitting to a 1:1 Langmuir binding model for estimate of Ka (association rate constant), Kd (dissociation rate constant), and KD (affinity) using the Carterra™ Kinetics software. 5-6 concentrations were used for curve fitting.

DMPK [1] = assay: DMPK knockdown by anti-TfR1 antibody-oligonucleotide conjugates in NHP myotubes; type: cell-based, non-human primate; conditions: conjugate with control DMPK-ASO, 72 hours, concentration not stated (0.5, 5, 50 nM tested)
Description: (§1) The purified complexes were then tested for cellular internalization and inhibition of the target gene, DMPK. Non-human primate (NHP) or DM1 (donated by DM1 patients) cells were grown in 96-well plates and differentiated into myotubes for 7 days. Cells were then treated with escalating concentrations (0.5 nM, 5 nM, 50 nM) of each complex for 72 hours. Cells were harvested, RNA was isolated, and reverse transcription was performed to generate cDNA. qPCR was performed using TaqMan kits specific for Ppib (control) and DMPK on the QuantStudio 7. The relative amounts of remaining DMPK transcript in treated vs non-treated cells was were calculated and the results are shown in Table 14 and FIG. 20.
as §1, with “of” for “of the target gene,”, “in” for “in Table 14 and”, “23.” for “20.”

DMPK [2] = assay: DMPK knockdown by anti-TfR1 antibody-oligonucleotide conjugates in DM1 patient myotubes; type: cell-based, human; conditions: for % knockdown of DMPK in cells from human DM1 patients using Antibody-DMPK ASO conjugate: DM1 patient myotubes, conjugate with control DMPK-ASO, 72 hours, concentration not stated (0.5, 5, 50 nM tested)
Description: as §1
as §1, with “of” for “of the target gene,”, “in” for “in Table 14 and”, “23.” for “20.”

Chain of hTfR1 (P02786 whole entry): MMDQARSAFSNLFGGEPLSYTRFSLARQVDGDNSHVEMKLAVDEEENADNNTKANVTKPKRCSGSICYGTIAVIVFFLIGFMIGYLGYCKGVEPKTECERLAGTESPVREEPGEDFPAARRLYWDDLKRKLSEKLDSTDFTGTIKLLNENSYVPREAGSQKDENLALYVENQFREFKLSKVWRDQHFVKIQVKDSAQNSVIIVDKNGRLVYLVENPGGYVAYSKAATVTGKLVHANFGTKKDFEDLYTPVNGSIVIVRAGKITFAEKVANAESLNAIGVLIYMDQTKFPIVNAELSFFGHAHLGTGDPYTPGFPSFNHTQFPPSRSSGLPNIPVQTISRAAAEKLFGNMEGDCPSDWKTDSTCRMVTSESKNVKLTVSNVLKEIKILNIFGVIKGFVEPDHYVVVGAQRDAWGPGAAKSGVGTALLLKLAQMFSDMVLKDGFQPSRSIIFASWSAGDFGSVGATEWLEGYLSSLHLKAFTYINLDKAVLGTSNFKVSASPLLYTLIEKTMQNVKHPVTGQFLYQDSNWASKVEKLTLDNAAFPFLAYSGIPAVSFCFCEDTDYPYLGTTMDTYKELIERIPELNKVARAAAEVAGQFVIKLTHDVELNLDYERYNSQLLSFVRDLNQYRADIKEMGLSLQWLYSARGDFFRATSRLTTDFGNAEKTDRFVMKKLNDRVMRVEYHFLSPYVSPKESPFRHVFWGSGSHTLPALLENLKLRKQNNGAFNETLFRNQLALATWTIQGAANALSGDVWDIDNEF

Molecule | dissociation rate constant (koff) (hTfR1) [µM] | % knockdown of DMPK in NHP cells using Antibody-DMPK ASO conjugate (DMPK [1]) [%] | % knockdown of DMPK in cells from human DM1 patients using Antibody-DMPK ASO conjugate (DMPK [2]) [%] | activity in delivering a payload (DMPK ASO) and achieving DMPK knockdown compared to the control antibody 15G11 (DMPK [2]; conjugates with control DMPK-ASO, in either cyno cells or human DM1 patient cells)
B1 | 127 | 77 | 52 | superior activity
B2 | 456 | 39 | 24 | –
B3 | 91.2 | 26 | 41 | –
B4 | 21.7 | 47 | −4 | –
B5 | – | −20 | 35 | –
B6 | – | 2 | 16 | –
B7 | – | 7 | 57 | –
